# Experiment: soluble on expression in E. coli; label from the status in PepcDB or PDB records
row,Sequence,soluble on expression in E. coli
1,MSLILIKNVSYYIDNNLNVHENCDILIEKVENSEIKLTTGKNLLEKLNLNQNDLKIISGEKKCAIPGLYNAHTHVPMTLLRGIADDMILQDWLNQKIWPNEAKLNKNDVYYGSLLGCLEMLRFGVTSFNEMYFFSEEILKATKEIGLNAQVSYPIIDFGTPEEQSIDKLLTSAESFVKNNVGEKNIKVGIAPHAPYTCSEETYQKCSEISNDYNVNMHTHVSETRYEVVELENKIGMRPVEYLEKIGVLNEKLHAAHCVWITKDEAKKLAKNNAKVLHCPTSNMKLASGGVMPLFELLEYGADISVGTDGPASNNNLDILKEMKMTSLLHKAHRWDPTVAGIDTVLKMGINSESIEIKNNDIILIDLDSAHLRPFNNIKSNIVYSAFGNDVDTVIVGGNILLENKKYKFSETFISNIYKNIQKITEKFEEGHHHHHH,not soluble
2,MVFNRVVQIGRVVFIASGKDQGKLAAIVNVIDGNRVQIDGPSSDVTRTVRNLKDLQLTKFVLKLRVGQRTKGVKAAFDAAKVTENFQKTQWAKKIAQRAIRAKLTDFERYKLMKAKQMRNRIVRVELAKLKKAQK,not soluble
3,MSLARTLVIGNKNYSSWSMRPWIALKATGVAFDEVVIPLYTGDADKRRILAFTPAGKVPVLVDGDVTIWDSLAIIEYAAERFPKAQLWPDDVAARAHARSVAAEMHSGFAALRNECGMNIHRPVGAKQLSDAARADIARVQEIWIDCRHRYGRFGPYLFGRFSGVDAMFAPVVHRFRTYAVELDPIAQGYVEVMMALPAFQEWTQAALAETWVIDKFETEGHHHHHH,soluble
4,MSLKSDNDVVITGVGIVTCHGVGSQAHVALLSGAAVPEPVVETEKFKPYPVHPMPEIDWSAQIAKRGDQRQMENWQRLGVFAAGLALDDAGLKENTEACATMDMIVAAGGGERDINVDTLIVDEALKRNDREKLLNEKLTTELRPTLFLAQLSNLMAGNISIVHKVTGSSRTFMGEEAAGISAVETAFHRIRSGESSHALVGGAFSAERPDMILLFEAIGAHAQGGWQPLWSRGDQDGGGMISGSLGAFLVLESRKHASERGARIYARIDAIEGDRGSRDDGKMEKRMERLLAPAKDSAATVVFSGASGYDEVTVREKDILEKVLPNSVIRGFGGVTGHGLEAQFPLGLALAALTLESGAKVPTFDAAAEKPMGEAATEAVVTTVGHVRGEGVAVLSRDVEGHHHHHH,soluble
5,MAHHHHHHMRSGPCPLPPAVAARSLLSPFGIGVSKRLALVGSGNSITALLVKENVPAGTPLLLAPDAALLTCQGALDADVDGLVPPPAEMLELLKRDTAQLDHVYLAYYLSLRCFTNTEDWFSSQIHRFKDSGSASQEDTASSRIWERFAQKYVTAPAPVFMAALQYVWESCFRKPATEADSASAPLPAALAVAPVVDVASQSRNATNSALTATTAKALKETHLHSDITGARQALLAKNDAYVYWVLTAITDIPVGGEVSVSSESVL,soluble
6,MDPMYLLVDVGNTHSVFSITEDGKTFRRWRLSTGVFQTEDELFSHLHPLLGDAMREIKGIGVASVVPTQNTVIERFSQKYFHISPIWVKAKNGCVKWNVKNPSEVGADRVANVVAFVKEYGKNGIIIDMGTATTVDLVVNGSYEGGAILPGFFMMVHSLFRGTAKLPLVEVKPADFVVGKDTEENIRLGVVNGSVYALEGIIGRIKEVYGDLPVVLTGGQSKIVKDMIKHEIFDEDLTIKGVYHFCFGD,soluble
7,MGSDKIHHHHHHMSRKDVVAGIRNEEGISTVLDLLKQSFGERFQTGQSFREQHAHTTTYLPAQLPDGVVFVESAEDVKTVVRTCAQHKVPMVPFGVGSSLEGQVNAAHGGISIDFTRMDKVLEVNAEDLDCTVQPGVTREALNTYLRDTGLFFPIDPGANASIGGMASTRASGTNAVRYGTMKDNVMALTVVTANGEEIRTAHRARKSSAGYDLTRLFVGAEGTLGVITSITLKLQGIPEKIGGGVCAFADVKSACDAVIMTIQMGIPVARIELLDAMQVRACNAYSNLSLPERPTLFLEFHGTEQTVALQAQQFAAIAEEYGAEDLRFTSDPQERAQLWKARHNAYWAGRALAPELAGLSTDVCVPISKLAECVAETQADIAETGLLAPIVGHVGDGNFHLLILFDDKDAENVDKVEAFMARLNERALAMDGTCTGEHGVGQGKMSYLEAELGGALDVMRQVKRGLDPDNLFNPGKIFRL,not soluble
8,MNIRCARVDDLMSMQNANLMCLPENYQMKYYFYHALSWPQLSYIAEDHKGNVVGYVLAKMEEDPGEEPHGHITSLAVKRSYRRLGLANKMMDQTARAMVETYNAKYVSLHVRVSNRAALNLYKNTLKFEIVDTEPKYYADGEDAYAMRRDLAKWAEERNIEPADREAYTTAKTTDDKKKNRS,not soluble
9,PCFALTSPEAGSDAGSIPDYGVVCKGEWEGKEVLGMRLTWNKRYITLAPVATVLGLAFKLRDPEGLLGDKEDLGITCALIPTDVKGVEIGNRHFPLNVPFQNGPTRGKDIFVPIDFIIGG,not soluble
10,MWGKKDAGTELTNYQTLATNTIGMMKGVDGYAFTSGAKMTDTLIQAGAAKGMTVSGDPASGSATLWNSWGGQIVVAPDTAGGTGFNNGFTITTNKVPQSACVSISTGMSRSGGTSGIKINGNNHTDAKVTAEIASSECTADNGRTGTNTLVFNYNG,soluble
11,NTLKAGQTQSFNDWFPDDNFASEVAAAFEMQATDTISEEQLATLTSLDCHNSSITDMTGIEKLTGLTKLICTSNNITTLDLSQNTNLTYLACDSNKLTNLDVTPLTKLTYLNCDTNKLTKLDVSQNPLLTYLNCARNTLTEIDVSHNTQLTELDCHLNKKITKLDVTPQTQLTTLDCSFNKITELDVSQNKLLNRLNCDTNNITKLDLNQNIQLTFLDCSSNKLTEIDVTPLTQLTYFDCSVNPLTELDVSTLSKLTTLHCIQTDLLEIDLTHNTQLIYFQAEGCRKIKELDVTHNTQLYLLDCQAAGITELDLSQNPKLVYLYLNNTELTELDVSHNTKLKSLSCVNAHIQDFSSVGKIPALNNNFEAEGQTITMPKETLTNNSLTIAVSPDLLDQFGNPMNIEPGDGGVYDQATNTITWENLSTDNPAVTYTFTSENGAIVGTVTTPFEAPQPIK,soluble
12,MGSDKIHHHHHHMSDQTRQPNSSSGLSQLLTGRLRSKLAAGVTHLTSGSGPTLDYSSPPGDPGLFGPDSVCWKVHADFTSMMTGGISALLLQALHPLALAGVWDHSAFRTDILGRLRRTATFIAGTTYGNRHDALALVERVKRIHLGVSGVAPDGRPYRASEPALLTWVHVAEVSSFMTAHLRYVNPLLPVAAQDQYFAETARIAEMLGASDIPRSRAGIDAYLLAMQPELVASERTRELVRILMNAPAPSASMRPAGVLMLNAGVDLLPDWAQAMLGFQRYAALRRAVTRPGVRLVAPVIRWALVNGVSKRARRRVAAGVREPE,not soluble
13,MQNTAHIIGAGISGLSAAVRLANAGFKVAVHEATHQAGGRCRSYFDGATNLTIDNGNHLLLSGNSHARAYARSIGTEAGLVGPESAQFPFVDIKTGQRWQIDLGTGRLPTWVLDESRRVPDTGLTDYLKLAPLIWASEETLVGKSIPTEGVLYQRLVQPLLLAALNVDPPEGSAGLAGAIVRETLLAGGQACRPLIARDGLSAVLIEPAVKFLQERGHSVQLGHELRAFVTSDGKAGALNFGGEDVIQLADGDVVVMAVPPRAAASLLPGLKTPTEFRAIVNAHFRFEPPPGSPPILGVIGGIVEWLFAFPNRLSVTISNGDRLVDMPREELAQAIWNDVCEAGGVSGELPPWQIVRERRATFAATPAQNALRPGPVTALKNLFLAGDWTATGLPATIEGSVRSGDRAADLVLAAQRPLEHHHHHH,not soluble
14,MKYQLNLTALRCPIPLLSAKKALKNLDKNDELMLILNLESAVENFSIFAEENSVALVEQYYASEKEFIVILKK,not soluble
15,GPGSMAEAQARKRTESLSKMYSKTPISEGYALWDREYLLAAMRVFTFKAEGAPPFVLAPYLDSVAEITLQMHDLEDAAEQFAIAAGKYQLIDQKVLADLMRFKVTEVSSSAEIALEQVQAYLAAQDPQANGSGENSTVQTKSAFARVYAYLADLLLRSVDEEQASEAVLAQALTAAELAVQLGWDRDHCGWLLVGDVHAASGNYEKAKEAYGKALQRCPHYAKALERQIGVVQQLVRAADECGDDAGKATLNTELLTLLSRSIEVHPLANTFREKAFLLSEMHGDDAALAFVAETLEHPPQEEIEVIGSSAKEMTSTLLKAKAAILADGNQLDAALEAATKALEVDPNDEEAKSIIRDLHESMAA,soluble
